biological target: ztf-11 (F52F12.6) (Caenorhabditis elegans) (UniProt O02274)
Sequence (O02274 212-388): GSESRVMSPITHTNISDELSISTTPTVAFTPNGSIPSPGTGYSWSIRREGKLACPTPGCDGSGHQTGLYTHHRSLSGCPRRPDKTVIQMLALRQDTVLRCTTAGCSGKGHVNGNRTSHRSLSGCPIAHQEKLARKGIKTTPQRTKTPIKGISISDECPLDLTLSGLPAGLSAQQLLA

Sequence	binding signal (PBM E-score (-0.5 to 0.5))
AAAAGTTT (double strand) [8-mer AAAAGTTT]	0.492
AAACTTCG (double strand) [8-mer AAACTTCG]	0.487
AAACTTGC (double strand) [8-mer AAACTTGC]	0.485
AAACTTTG (double strand) [8-mer AAACTTTG]	0.481
AAAGTTTG (double strand) [8-mer AAAGTTTG]	0.494
AACTTTTG (double strand) [8-mer AACTTTTG]	0.48
AAGTTTCG (double strand) [8-mer AAGTTTCG]	0.483
AAGTTTGA (double strand) [8-mer AAGTTTGA]	0.48
AAGTTTGC (double strand) [8-mer AAGTTTGC]	0.483
AAGTTTGG (double strand) [8-mer AAGTTTGG]	0.485
AAGTTTGT (double strand) [8-mer AAGTTTGT]	0.487
AAGTTTTC (double strand) [8-mer AAGTTTTC]	0.48
CAAACTTC (double strand) [8-mer CAAACTTC]	0.48
CAAACTTG (double strand) [8-mer CAAACTTG]	0.487
GAAACTTC (double strand) [8-mer GAAACTTC]	0.481

biological target: dmd-4 (C27C12.6) (Caenorhabditis elegans) (UniProt Q18248)
Sequence (Q18248 1-114): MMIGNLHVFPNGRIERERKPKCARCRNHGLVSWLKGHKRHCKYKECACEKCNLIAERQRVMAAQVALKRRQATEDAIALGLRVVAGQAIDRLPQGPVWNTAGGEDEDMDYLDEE

Sequence	binding signal (PBM E-score (-0.5 to 0.5))
AAAGTATC (double strand) [8-mer AAAGTATC]	0.492
AAGATACA (double strand) [8-mer AAGATACA]	0.477
AGATACAT (double strand) [8-mer AGATACAT]	0.492

system: T1, syd-9 (ZK867.1) (Caenorhabditis elegans)
T1 sequence: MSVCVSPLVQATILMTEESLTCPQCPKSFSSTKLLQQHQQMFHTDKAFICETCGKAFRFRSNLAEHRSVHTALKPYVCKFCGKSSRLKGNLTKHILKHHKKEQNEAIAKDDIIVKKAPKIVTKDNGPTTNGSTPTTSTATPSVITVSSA

Sequence	binding signal (PBM E-score (-0.5 to 0.5))
AACTGTAC (double strand) [8-mer AACTGTAC]	0.492
ACTGTAAT (double strand) [8-mer ACTGTAAT]	0.489
ACTGTACA (double strand) [8-mer ACTGTACA]	0.494
ACTGTACC (double strand) [8-mer ACTGTACC]	0.489
ACTGTACG (double strand) [8-mer ACTGTACG]	0.491
GAACTGTA (double strand) [8-mer GAACTGTA]	0.492
GACTGTAC (double strand) [8-mer GACTGTAC]	0.49

biological target: T2, Y48G1C.6 (Y48G1C.6) (Caenorhabditis elegans) (UniProt Q9N3P2)
T2 sequence: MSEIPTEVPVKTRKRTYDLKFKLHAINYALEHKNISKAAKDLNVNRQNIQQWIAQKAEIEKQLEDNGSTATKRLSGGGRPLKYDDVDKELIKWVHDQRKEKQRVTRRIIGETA

Sequence	binding signal (PBM E-score (-0.5 to 0.5))
AACTTGCA (double strand) [8-mer AACTTGCA]	0.494
ACTGCAAG (double strand) [8-mer ACTGCAAG]	0.493
ACTTGCAC (double strand) [8-mer ACTTGCAC]	0.495
ACTTGCAG (double strand) [8-mer ACTTGCAG]	0.494
ACTTGCAT (double strand) [8-mer ACTTGCAT]	0.493
AGTGCAAG (double strand) [8-mer AGTGCAAG]	0.493
ATCTTGCA (double strand) [8-mer ATCTTGCA]	0.495
ATGCAAGA (double strand) [8-mer ATGCAAGA]	0.495
CATGCAAG (double strand) [8-mer CATGCAAG]	0.496
CCTGCAAG (double strand) [8-mer CCTGCAAG]	0.493
CTGCAAGA (double strand) [8-mer CTGCAAGA]	0.494
CTTGCACC (double strand) [8-mer CTTGCACC]	0.494
GCATGCAA (double strand) [8-mer GCATGCAA]	0.496
GTCTTGCA (double strand) [8-mer GTCTTGCA]	0.494
GTGCAAGA (double strand) [8-mer GTGCAAGA]	0.494

Source: PMC4434323
